First the molecules themselves.
B1: MS501 scFv 단백질 (scFv)
scFv: EVQLLESGGGLVQPGGSLRLSCAASGFTFSNYAMSWVRQAPGKGLEWVSGIYPDSGSTYYADSVKGRFTISRDNSKNTLYLQMNSLRAEDTAVYYCARNIYTFDYWGQGTLVTVSSGGGGSGGGGSGGGGSQSVLTQPPSASGTPGQRVTISCSGSSSNIGSNAVSWYQQLPGTAPKLLIYYNNQRPSGVPDRFSGSKSGTSASLAISGLRSEDEADYYCGSWDSSLSGYVFGGGTKLTVLG
B2: MS503 scFv 단백질 (scFv)
scFv: B1 scFv with G50S, D54G, S55D, R98K, I100A, Y101F, N184S, Q185H, S222T
B3: C2G4 scFv 단백질 (scFv)
scFv: EVQLLESGGGLVQPGGSLRLSCAASGFTFSNYAMSWVRQAPGKGLEWVSGIPPDSGSKYYADSVRGRFTVSRDNSKNTLYLQMNSLRAEDTAVYYCAKNMLSFDYWGQGTLVTVSSGGGGSGGGGSGGGGSQSVLTQPPSASGTPGQRVTISCTGSSSNIGSNAVSWYQQLPGTAPKLLIYYNSKRPSGVPDRFSGSKSGTSASLAISGLRSEDEADYYCGSWDPSLNGYVFGGGTKVTVLG

Substitutions are numbered along the chain they refer to.

Results on three molecules are retold here after patent KR20200090598A.

The target of the assay is 메소텔린 (MIA PaCa2-MSLN 세포에 과발현) (UniProt Q13421). As to the kind of experiment: flow cytometry on MIA PaCa2-MSLN cells; 1 μg scFv, anti-6xHis tag detection. (In flow cytometry, cells or beads pass a laser one at a time.)
Molecule B1 displayed a percent of cells bound of over 68%. As for B2, the figure is over 68%; as for B3, over 68%.
